The chains are these.
B1: OR4K15 (parent)
chain: GUUAACGGUCAUAGGCCAUGGAAACUAGGAGCACCAUUUCGCUGCCAGUGAAGAAAUGAACAAAGAAAAUCUGGGCCAGGCAGGCAUCAAAAGAAAUAGUCUUGCGCUCAACCAGAAAGUCUGUAAUCAUUUUAAGGGUA

The variants in the data set derive from B1. The experiment in a line: self-cleavage, relative activity (ratio to wild type); higher = more cleavage; in vitro, sequencing; the parent is a self-cleaving ribozyme.
As to U87A A96G, the self-cleavage stood at 2.29.

As to A86G U132C, the self-cleavage was found to be 1.16. Then A89G A134G, with 1.64; and A82C A86U, with 0.13. The result for A82G U97C reads 0.5; that for A82G U97A, 0.92.

For A82U A92U, the self-cleavage stood at 0.26.

Turning to A89C A116U, the self-cleavage came to 0.32. Turning to A89C A116G, the self-cleavage turned out to be 0.19. The result for U87C U108A reads 0.01.

For U87C U108C, the self-cleavage was 0.01. Then A82U A114U, with 0.01; and A82U A114G, with 0.03. The result for A82C A125U reads 0; that for G83A A92G, 1.87; that for U87G U100A, 0.06. In the case of A86C U139C, the self-cleavage is 0.51. Then A82G A129G, with 0.47. Then A86G A110U, with 1.06. The result for U87C C113U reads 0.12; that for U87C C113A, 0.01; that for U87A G106C, 0.01. Take C81U U127C: the self-cleavage is 0.22. Then A82G G138C, with 0.66; and G83U A135G, with 0.56. The result for A86C G106U reads 0.01; that for A82G C112U, 0; that for A86C U127A, 1.62.

A89C U122C: the self-cleavage came to 1.75. Take C85U U108C: the self-cleavage was 0.04. In the case of C85U U108G, the self-cleavage stood at 0.01. The result for A82U U102C reads 0.33; that for C85U A96U, 1.58; that for A89G A129G, 1.06.

In the case of U87C A116C, the self-cleavage came to 0.06.

For the variant U87C A116G, the self-cleavage was found to be 0.55.

With A86G A116U, the self-cleavage came out at 0.36.

For G83A A89G, the self-cleavage was found to be 1.56.

For the variant A82G A95G, the self-cleavage is 1.23.

For the variant A82G U132C, the self-cleavage was 0.5. The result for A86G A126G reads 1.18; that for A86G C105A, 0.02.

Regarding A82U U120C, the self-cleavage came to 0.03. Then G84A A111G, with 0.01; and C85A A140G, with 1.84. Then A86U A118G, with 1.33; and U87A A114G, with 0.08. The result for U87A A114C reads 0.05; that for U87A A114U, 0.1; that for A89C U120C, 0.75. As to A86U A90G, the self-cleavage was found to be 1.3.

Regarding A86U U131C, the self-cleavage was 1.77. The result for G84A U131C reads 2.37. A86G A117U: the self-cleavage came out at 1.45.

Regarding A86G A117G, the self-cleavage was determined as 1.45.

On to A89G C101U, for which the self-cleavage worked out at 0.29.

Regarding G84U C88U, the self-cleavage is 0.52. Regarding C85G A135G, the self-cleavage amounted to 0.85. Regarding G83A A94G, the self-cleavage is 1.79. The result for A86U C109U reads 0.6; that for G83U, 0.45. The result for G83A reads 1.55; that for G83C, 0.35; that for C85U U103C, 0.34. As for C88U U127C, the self-cleavage was 2.09. With A82U A96U, the self-cleavage worked out at 0.25. For the variant A82U A96G, the self-cleavage stood at 0.24.

As for G84C A94G, the self-cleavage was 0.32.

Take A82G A90G: the self-cleavage stood at 0.31.

As to A89G G106A, the self-cleavage was determined as 0.01. Then A82G U122C, with 0.24; and C81U A82G, with 0.14. The result for A89G U103G reads 0.02; that for C81G U127C, 0.04. For A89G C105U, the self-cleavage was determined as 0.07. On to U87A A135G, for which the self-cleavage was found to be 2.03. The result for A86U C105U reads 0.27. As for U87A C88U, the self-cleavage was 1.17. Regarding A82G A111C, the self-cleavage is 0.01.

In the case of A82G A111G, the self-cleavage was found to be 0.04. The result for A82G A111U reads 0.09. In the case of C81G, the self-cleavage worked out at 0.2. Then C81A, with 0.25; and C81U, with 0.35; and C88U U120C, with 1.46. Then A89G A125G, with 0.16; and U87C A98G, with 0.74; and U87C A98U, with 1.9. The result for C81U A86G reads 0.17; that for C81U C112U, 0.01.

Consider G84A, for which the self-cleavage was 2.05. Then G84U, with 0.7; and G84C, with 0.29; and A82U U103C, with 0.03. Then A82G C85U, with 0.32. In the case of A86G A135G, the self-cleavage was found to be 0.99. Then G83A A140U, with 2.25. The result for G84A U103C reads 0.82; that for U87C U122A, 1.32. As to A86U U102C, the self-cleavage came out at 2.39.

On to G84A A126G, for which the self-cleavage is 0.87. Consider C85A A135G, for which the self-cleavage was 1.54. The result for A82G G99U reads 0.07. The result for A86U A135G reads 2.44. Then A86U A135U, with 2.32; and U87A A91G, with 1.33; and U87A A94U, with 1.52.

On to A86U A125G, for which the self-cleavage came out at 0.95. The result for C85G U130C reads 0.34. The result for A89G C107U reads 0; that for A82U A90G, 0.33. The result for A82U A90U reads 0.08; that for A86G U100A, 0.41. Regarding A86G U100C, the self-cleavage is 2.12. For A86G A125U, the self-cleavage was found to be 0.14. As for A86G A125G, the self-cleavage came out at 0.45. Take A86G A98U: the self-cleavage came out at 1.73.

On to A82U A111G, for which the self-cleavage stood at 0.02. Then A86U A95G, with 2.02; and A82U A89U, with 0.32. Then A82U A89G, with 0.1; and C88U A140G, with 2.02; and A89G A114G, with 0.36. For A89G A114U, the self-cleavage came out at 0.12. The result for A89G A111G reads 0.02; that for A82G G83U, 0.08; that for A89G A117G, 1.73. Take A82U A118G: the self-cleavage was 0.06. Regarding A89C U108C, the self-cleavage came to 0.01. Then A89G A118U, with 0.54; and A89G A118G, with 1.18; and A89C A117U, with 0.98. Then U87A A89G, with 0.91; and U87C A135G, with 1.81; and A82G A126G, with 0.33. Then A89G G119C, with 1.62; and A82U U108A, with 0.03; and C88A, with 1.78.

Consider C88U, for which the self-cleavage is 1.83. The result for U87C C128U reads 0.76; that for A89G A98G, 0.67. With A86U U132C, the self-cleavage is 1.71. Then A86U A92G, with 1.46. The result for A82G A116U reads 0.07; that for A82G A94G, 0.32. The result for A82G A94U reads 0.64; that for A86G A94G, 1.47. As for A82G A118U, the self-cleavage worked out at 0.44. As to A82G A118G, the self-cleavage amounted to 0.14. Consider U87C U102C, for which the self-cleavage came out at 2.08. Regarding A89G A110U, the self-cleavage is 0.77. The result for G83A U131A reads 0.94; that for U87C U132A, 0.81.

Turning to A86G U102A, the self-cleavage is 1.36. Then A82U A126G, with 0.1; and A82U A126U, with 0.19. The result for A89C A118G reads 0.51; that for U87C C88A, 0.75. The result for A86C U130C reads 0.29.

As to A89C A90G, the self-cleavage worked out at 0.73. The result for C81G A82G reads 0.3. The result for G80U G123A reads 0.14. Then G83A A90G, with 1.34.

In the case of C85A A134G, the self-cleavage was found to be 1.83. The result for G80U U87C reads 0.22; that for C81U A129U, 0.16. The result for C81A A126G reads 0.17.
